{"source": "patent US20210071247", "key": {"[1]": {"target": "PrimeScript reverse transcriptase (UniProt P03355)", "conditions": "LNA at GATA and GAAC of 3' 12-mer GATAgcttGAAC of SEQ 2 (mC LNA), PS linkages in the 12-mer; iSp18 spacer and 3' amino in DCP1; read-through efficiency, 42 C"}, "[2]": {"target": "Volcano2G DNA polymerase (UniProt P19821)", "sequence (P19821 whole entry)": "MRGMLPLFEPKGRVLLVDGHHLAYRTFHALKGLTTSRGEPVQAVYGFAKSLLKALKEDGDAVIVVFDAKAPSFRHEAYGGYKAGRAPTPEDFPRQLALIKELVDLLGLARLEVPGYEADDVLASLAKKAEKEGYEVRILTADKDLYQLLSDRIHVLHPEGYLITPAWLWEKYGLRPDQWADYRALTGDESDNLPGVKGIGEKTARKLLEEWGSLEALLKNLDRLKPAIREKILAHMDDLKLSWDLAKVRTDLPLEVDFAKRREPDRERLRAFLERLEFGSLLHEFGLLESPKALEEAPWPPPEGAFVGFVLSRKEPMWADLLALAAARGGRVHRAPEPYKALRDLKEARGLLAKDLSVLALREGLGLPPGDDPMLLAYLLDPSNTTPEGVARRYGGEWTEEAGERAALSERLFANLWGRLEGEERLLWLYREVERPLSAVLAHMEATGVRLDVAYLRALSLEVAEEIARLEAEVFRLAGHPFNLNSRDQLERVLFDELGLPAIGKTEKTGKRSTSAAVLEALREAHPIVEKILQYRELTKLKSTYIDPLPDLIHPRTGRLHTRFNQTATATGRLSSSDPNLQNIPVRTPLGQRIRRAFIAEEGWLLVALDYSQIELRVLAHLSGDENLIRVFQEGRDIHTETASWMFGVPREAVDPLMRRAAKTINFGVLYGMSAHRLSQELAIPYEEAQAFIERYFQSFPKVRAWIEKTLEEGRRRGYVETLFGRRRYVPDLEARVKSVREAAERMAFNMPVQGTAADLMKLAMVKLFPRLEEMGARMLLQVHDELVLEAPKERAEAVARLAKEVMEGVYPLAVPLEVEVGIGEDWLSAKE", "conditions": "LNA at GATA and GAAC of 3' 12-mer GATAgcttGAAC of SEQ 2 (mC LNA), PS linkages in the 12-mer; iSp18 spacer and 3' amino in DCP1; first strand read-through efficiency vs DTT1, ddPCR, 42 C"}, "[3]": {"tested_on": "AMV reverse transcriptase (Avian myeloblastosis virus)", "conditions": "LNA at GATA and GAAC of 3' 12-mer GATAgcttGAAC of SEQ 2 (mC LNA), PS linkages in the 12-mer; iSp18 spacer and 3' amino in DCP1; read-through efficiency, 42 C; lost above 52.5 C"}}, "data": [{"sequence": "GCGTAACTAGACCATAAGCCGATAGCTTGAACCGGACCAGCAAGCTTAGAGATCACGGTATCCAGATTCGCTCATAGTACACAACTGCCTCCGGTTCAA / GCAGTTGTGTACTATGAGCGA [LTT1 template with DCP1_primer1]", "values": [{"measurement": "activity", "setting": "[1]", "result": 0.1, "unit": "%"}, {"measurement": "activity", "setting": "[2]", "result": 10, "unit": "%"}, {"measurement": "activity", "setting": "[3]", "result": 0.1, "unit": "%"}]}]}
